In PMC6294517:

Biological target: T1, SSBP1 (single-stranded DNA-binding protein 1, mitochondrial) (UniProt Q04837 17-148)
T1 sequence: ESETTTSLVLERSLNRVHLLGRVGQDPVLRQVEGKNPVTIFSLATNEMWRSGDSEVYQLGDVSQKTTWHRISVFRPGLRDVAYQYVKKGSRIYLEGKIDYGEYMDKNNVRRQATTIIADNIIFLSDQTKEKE
Test: fluorescence anisotropy

B1: 5x 6mA fluorescent probe (PG491/PG493) (dsDNA)
DNA 1: TATTTAACCTAAATTTCTATAAGATTATTAGTATAAAAGGG
DNA 2: CCCTTTTATACTAATAATCTTATAGAAATTTAGGTTAAATA
modifications: N6-methyldeoxyadenosine at strand 1 positions 19, 24, 27, 30, 33
  binding result: binds
